The values below come from US20110263026, “Construction of Protein-Responsive shRNA/RNAi Control System Using RNP Motif” (JAPAN SCIENCE AND TECHNOLOGY AGENCY, published 2011).

The target of series [1] is T1, L7Ae (UniProt O29494 SEQ:21-139). The experiment in a line: EMSA; 40 nM RNA, 80-640 nM L7Ae; sequence-specific binding stated for Box C/D only. Conditions: tags: His6 (pET-28b+, Ni-NTA); hairpin (shRNA). The protocol: (§1) The binding between each shRNA and the protein was confirmed as follows: after dilution with a dialysis buffer to bring the protein concentration to concentrations 25 times the final concentrations of 80 to 640 nM, 2 μL of the protein solution with each concentration, 2 μL of 1 μM shRNA-Box C/D-GFP, 6 μL of ultrapure water, and 40 μL of Opti-MEM I (trademark, Invitrogen Corp.) were mixed and left standing at room temperature for 30 minutes to bind shRNA (40 nM) to L7Ae (80 nM, 160 nM, 320 nM, or 640 nM). shRNA-GFP and shRNA-Box C/D mut-GFP were bound to L7Ae in the same way. To each solution, 13 μL of 5× dye solution (0.25% BPB, 30% glycerol) was added and mixed, and 15 μL of this mixed solution was layered on a nondenaturing 15% polyacrylamide (1/30 bisacrylamide) gel and electrophoresed at 250 V at 4° C. for 50 minutes. After the electrophoresis, the gel was stained with SYBR Green for 15 minutes, and bands were confirmed using FLA-7000 (FUJI FILM).
T1 sequence (O29494 whole entry): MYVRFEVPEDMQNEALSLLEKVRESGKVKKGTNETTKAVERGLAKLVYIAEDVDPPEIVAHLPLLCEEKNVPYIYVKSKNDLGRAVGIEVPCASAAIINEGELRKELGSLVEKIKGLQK

Series [2] concerns the target T1, L7Ae. The experiment in a line: EMSA; 40 nM RNA, 80-640 nM L7Ae, Opti-MEM, room temperature. As to conditions: tags: His6 (pET-28b+, Ni-NTA); hairpin (shRNA) with Box C/D kink-turn loop. Here is the method: as §1
In general terms: Mobility shift assays separate free from complexed probe on a gel.

B1: shRNA-GFP (ssRNA)
RNA: GGCAUCAAGGUGAACUUCAAGAUCCAGCAUAGGGAUCUUGAAGUUCACCUUGAUGCCAG
With B1, in series [1], the binding result is “no binding”.

B2: shRNA-Box C/D-mut-GFP (ssRNA)
RNA: GGCAUCAAGGUGAACUUCAGCUGCCCGAAAGGGCGUCAUGCUGAAGUUCACCUUGAUGCCAG
On to B2, for which the binding result in series [1] is “no binding”.

B3: shRNA-Box C/D-GFP (ssRNA)
RNA: GGCAUCAAGGUGAACUUCAGCUGACCCGAAAGGGCGUGAUGCUGAAGUUCACCUUGAUGCCAG
For B3, in series [2], the binding result was “binds”.
